Experiment [1] deals with T1, His-tagged human CD5 antigen (human, UniProt P06127 25-372, limits assumed).
T1 construct: not shown: His tag
T1 sequence (looked up): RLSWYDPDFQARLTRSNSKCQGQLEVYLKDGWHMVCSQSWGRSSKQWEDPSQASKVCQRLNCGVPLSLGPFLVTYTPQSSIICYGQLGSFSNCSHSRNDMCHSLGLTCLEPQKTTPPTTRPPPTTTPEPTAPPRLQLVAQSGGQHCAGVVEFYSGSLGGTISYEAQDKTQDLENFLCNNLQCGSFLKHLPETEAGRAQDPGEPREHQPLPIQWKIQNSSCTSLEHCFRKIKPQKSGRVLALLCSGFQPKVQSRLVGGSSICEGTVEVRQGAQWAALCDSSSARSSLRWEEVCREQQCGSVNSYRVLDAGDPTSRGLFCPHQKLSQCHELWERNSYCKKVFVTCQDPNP
Briefly: worded comparison of affinity (Octet KD values in FIG. 68). The text has this: In particular, His-tagged human and cynomolgus CD5 antigen were captured using HIS1K sensors and dipped into multiple concentrations of the bispecific antibodies.
(In general: In BLI a coated tip is dipped into the sample, and binding shifts an interference pattern.)

Experiment [2] concerns the target T2, human CD5 on human PBMCs / T cells (human, UniProt P06127 25-495).
T2 construct: whole, on cells
T2 sequence (looked up): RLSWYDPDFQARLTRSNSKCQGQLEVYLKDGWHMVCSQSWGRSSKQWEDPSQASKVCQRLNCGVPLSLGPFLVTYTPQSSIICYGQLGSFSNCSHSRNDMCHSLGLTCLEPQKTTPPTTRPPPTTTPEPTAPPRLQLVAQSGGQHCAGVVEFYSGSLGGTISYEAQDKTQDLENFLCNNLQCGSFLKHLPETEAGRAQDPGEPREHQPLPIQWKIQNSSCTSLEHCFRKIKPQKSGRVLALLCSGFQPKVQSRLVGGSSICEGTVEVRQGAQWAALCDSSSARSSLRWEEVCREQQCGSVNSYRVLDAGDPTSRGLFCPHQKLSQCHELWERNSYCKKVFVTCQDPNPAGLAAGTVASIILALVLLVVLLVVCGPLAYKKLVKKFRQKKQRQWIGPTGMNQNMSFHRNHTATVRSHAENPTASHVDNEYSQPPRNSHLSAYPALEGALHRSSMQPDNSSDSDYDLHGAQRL
Nature of the experiment: cell binding on unstimulated human PBMCs (FIG. 67).

Experimental findings from patent US20220144956A1 (Xencor, published 2022) are described below.

B1: XENP37385 (bispecific antibody, human IgG1, kappa)
heavy: EVQLKESGAELVRPGGSVKISCKGSGYTFTNFAIHWVKQSHIKTLEWIGLISTSSGDVSYNQKFKDKATMTVDKSSSTAYMELARLTSEDSAIYYCARHYGANNYFDYWGQGTLVTVSSASTKGPSVFPLAPSSKSTSGGTAALGCLVKDYFPEPVTVSWNSGALTSGVHTFPAVLQSSGLYSLSSVVTVPSSSLGTQTYICNVNHKPSDTKVDKKVEPKSCDKTHTCPPCPAPPVAGPSVFLFPPKPKDTLMISRTPEVTCVVVDVKHEDPEVKFNWYVDGVEVHNAKTKPREEEYNSTYRVVSVLTVLHQDWLNGKEYKCKVSNKALPAPIEKTISKAKGQPREPQVYTLPPSREEMTKNQVSLTCDVSGFYPSDIAVEWESDGQPENNYKTTPPVLDSDGSFFLYSKLTVDKSRWEQGDVFSCSVMHEALHNHYTQKSLSLSPGK
scFv-Fc: QLQVQESGPGLVKPSETLSLTCTVSGGSISNSYFSWGWIRQPPGKGLEWIGSFYYGEKTYYNPSLKSRATISIDTSKSQFSLKLSSVTAADTAVYYCPRGPTVIRGVIDSWGQGTLVTVSSGKPGSGKPGSGKPGSGKPGSEIVLTQSPATLSLSPGERATLSCRASQSVRSYLAWYQQKPGQAPRLLIYDASNRATGIPARFSGSGSGTDFTLTISSLEPEDFAVYYCQQRSNWPPTFGQGTKVEIKEPKSSDKTHTCPPCPAPPVAGPSVFLFPPKPKDTLMISRTPEVTCVVVDVKHEDPEVKFNWYVDGVEVHNAKTKPREEQYNSTYRVVSVLTVLHQDWLNGKEYKCKVSNKALPAPIEKTISKAKGQPREPQVYTLPPSREQMTKNQVKLTCLVKGFYPSDIAVEWESNGQPENNYKTTPPVLDSDGSFFLYSKLTVDKSRWQQGNVFSCSVMHEALHNHYTQKSLSLSPGK
light: EIVLTQSPTIMSASPGEQVTMTCRTNSSVSSSYLHWYQQKSGASPKLWIYGTSNLASGVPTRFSGSGSGTSYSLTISSVEAGDAATYFCQQYSGYPLTFGGGTKVEIKRTVAAPSVFIFPPSDEQLKSGTASVVCLLNNFYPREAKVQWKVDNALQSGNSQESVTEQDSKDSTYSLSSTLTLSKADYEKHKVYACEVTHQGLSSPVTKSFNRGEC
On to B1, for which, in experiment [1], the binding result is on record as “binds”.

B2: XENP35401 (antibody, human IgG1, kappa, V domains shown)
VH: EVQLVESGGGVVQPGRSLRLSCTFSGFSLSTSGMGVGWIRQAPGKGLEWVAHIWWDDDVYYNPSLKSRLTITKDASTDTVYMELSSLRSEDTAVYYCVRRRATGTGFDYWGQGTLVTVSS
VL: NIVMTQSPSSLSASVGDRVTITCQASQDVGTAVAWYQQKPDQSPKLLIYWTSTRHTGVPDRFTGSGSGTDFTLTISSLQPEDIATYFCHQYNSYNTFGSGTKLEIKR
notes: IgG1 backbone with E233P/L234V/L235A/G236del/S267K ablation variant; also called bivalent anti-CD5 mAb based on clone 5D7; 5D7; copies: 2 + 2
As to B2, in experiment [2], the binding result is reported as “binds”.
